Assay results published in patent US20120178682A1, “GB1 Peptidic Compounds and Methods for Making and Using the Same” (priority 2010, published 2012).
Numbering of substitutions follows the chain as printed. Names may count otherwise.

B1: E01 (recombinant, His-tagged) (designed binder)
chain: MKIEEHHHHHHHHHHGGSTYKLILNGKTLKGETTTEAVDVYDAFDVFFVYAASNFSDFDDWTYDDATKTFTVTEGGSDK
B2: E01-D39F (designed binder)
chain: B1 chain with D57F
B3: E01-D39F/V22L (designed binder)
chain: B1 chain with V40L, D57F
B4: E01-D39F/D27E (designed binder)
chain: B1 chain with D45E, D57F
B5: E01-D39F/V31A (designed binder)
chain: B1 chain with V49A, D57F
B6: E01-D39F/A34S (designed binder)
chain: B1 chain with A52S, D57F
B7: E01-D39F/S35R (designed binder)
chain: B1 chain with S53R, D57F
B8: E01-D39F/S35E (designed binder)
chain: B1 chain with S53E, D57F
B9: E01-D39F/S35G (designed binder)
chain: B1 chain with S53G, D57F
B10: E01-D39F/S38G (designed binder)
chain: B1 chain with S56G, D57F
B11: E01-D39F/F40I (designed binder)
chain: B1 chain with D57F, F58I

These binders were tested against D-VEGF, synthetic D-protein form of VEGF-A(8-109) (Homo sapiens (Human)) (UniProt P15692) (assay: SPR (ProteOn XPR36), D-VEGF immobilized).
Sequence of D-VEGF, synthetic D-protein form of VEGF-A(8-109) (Homo sapiens (Human)) (P15692 214-315 limits assumed, form in doubt): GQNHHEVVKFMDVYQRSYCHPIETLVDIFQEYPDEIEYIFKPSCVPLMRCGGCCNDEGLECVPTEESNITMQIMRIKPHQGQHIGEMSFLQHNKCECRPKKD
With B1 the Kd was 13.4 nM, the koff was 0.00347 s⁻¹ and the kon was 260000 M⁻¹ s⁻¹.

Biological target: D-VEGF, synthetic D-protein form of VEGF-A(8-109) (Homo sapiens (Human)) (UniProt P15692)
Assay: SPR (ProteOn XPR36), D-VEGF immobilized
Remark: another data set of the same source
For B1, the Kd was 3.46 nM, the koff was 0.00117 s⁻¹ and the kon was 338000 M⁻¹ s⁻¹.
Work on B2 yielded a Kd of 3.48 nM, a koff of 0.00132 s⁻¹ and a kon of 380000 M⁻¹ s⁻¹.
With B3 the Kd was 1.14 nM, the koff was 0.00082 s⁻¹ and the kon was 719000 M⁻¹ s⁻¹.
In the case of B4, the Kd is reported as 3.1 nM, the koff is reported as 0.00158 s⁻¹ and the kon is reported as 511000 M⁻¹ s⁻¹.
B5 showed a Kd of 2.99 nM, a koff of 0.00167 s⁻¹ and a kon of 558000 M⁻¹ s⁻¹.
In the case of B6, the Kd is reported as 4.49 nM, the koff is reported as 0.00174 s⁻¹ and the kon is reported as 387000 M⁻¹ s⁻¹.
Work on B7 yielded a Kd of 5.35 nM, a koff of 0.00183 s⁻¹ and a kon of 341000 M⁻¹ s⁻¹.
B8 showed a Kd of 4.52 nM, a koff of 0.00205 s⁻¹ and a kon of 454000 M⁻¹ s⁻¹.
For B9, the Kd was 5.4 nM, the koff was 0.00193 s⁻¹ and the kon was 358000 M⁻¹ s⁻¹.
Binder B10 has a Kd of 2.83 nM, a koff of 0.00131 s⁻¹ and a kon of 463000 M⁻¹ s⁻¹.
For B11, the Kd was 2.29 nM, the koff was 0.00138 s⁻¹ and the kon was 602000 M⁻¹ s⁻¹.
